According to article PMC9037272:

What was measured:
Assay in all cases: FRET or BRET; FRET efficiency by flow cytometry in co-transfected HEK-293T cells 24 h post-transfection; donor mCerulean fusion, acceptor mEYFP fusion; Cer alone as negative control
[1] = target: EYFP-Pen (Drosophila melanogaster) (UniProt P52295)
[2] = target: EYFP-Tsn (Drosophila melanogaster)
[3] = target: EYFP-Hsp26 (Drosophila melanogaster) (UniProt P02517)
Chain of UniProt P02517 (P02517 whole entry): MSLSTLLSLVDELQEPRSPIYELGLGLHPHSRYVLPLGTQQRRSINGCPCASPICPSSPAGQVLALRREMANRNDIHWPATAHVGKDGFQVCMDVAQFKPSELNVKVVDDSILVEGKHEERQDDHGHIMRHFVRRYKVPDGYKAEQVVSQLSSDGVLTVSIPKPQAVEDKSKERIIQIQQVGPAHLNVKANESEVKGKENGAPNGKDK

Chain of UniProt P52295 (P52295 whole entry): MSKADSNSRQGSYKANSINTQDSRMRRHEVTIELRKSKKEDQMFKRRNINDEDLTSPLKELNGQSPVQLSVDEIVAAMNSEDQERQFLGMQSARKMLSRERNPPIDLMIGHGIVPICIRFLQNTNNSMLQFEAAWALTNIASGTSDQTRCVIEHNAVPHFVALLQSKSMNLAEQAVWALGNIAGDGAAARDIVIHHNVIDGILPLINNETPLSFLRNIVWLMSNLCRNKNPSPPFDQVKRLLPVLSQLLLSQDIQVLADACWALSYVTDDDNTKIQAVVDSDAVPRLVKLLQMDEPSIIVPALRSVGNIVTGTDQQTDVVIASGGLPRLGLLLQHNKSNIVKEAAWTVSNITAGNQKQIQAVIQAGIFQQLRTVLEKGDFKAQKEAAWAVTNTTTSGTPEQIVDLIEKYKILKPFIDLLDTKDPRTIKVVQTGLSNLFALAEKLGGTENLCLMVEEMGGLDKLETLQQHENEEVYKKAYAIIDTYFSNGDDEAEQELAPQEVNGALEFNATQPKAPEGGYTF

## Cer-NtFT4 (mCerulean fusion of NtFT4) (natural protein)
[1]
  FRET efficiency: 7.9%
[2]
  FRET efficiency: 3.8%
[3]
  FRET efficiency: 13.8%
